Key:
HLA-B*40:01 = test: IEDB peptide-MHC binding, purified MHC/competitive/radioactivity; filed as Kd, often an IC50 or EC50 that approximates it; ≥ and ≤ were set here for values at or beyond the usual limits of such assays
HLA-A*26:01 [1] = test: IEDB peptide-MHC binding, purified MHC/direct/fluorescence; filed as Kd, often an IC50 or EC50 that approximates it; ≥ and ≤ were set here for values at or beyond the usual limits of such assays; conditions: source organism: Vibrio vulnificus CMCP6
HLA-A*02:01 [2] = test: IEDB peptide-MHC binding, purified MHC/competitive/fluorescence; ≥ and ≤ were set here for values at or beyond the usual limits of such assays
HLA-A*24:02 [3] = test: as above
HLA-A*03:01 = test: IEDB peptide-MHC binding, purified MHC/direct/fluorescence; filed as Kd, often an IC50 or EC50 that approximates it; ≥ and ≤ were set here for values at or beyond the usual limits of such assays; conditions: source organism: SARS-CoV1
HLA-B*27:05 = test: as above; conditions: source organism: SARS-CoV1
HLA-A*31:01 = test: as above; conditions: source organism: SARS-CoV1
HLA-A*11:01 = test: as above; conditions: source organism: SARS-CoV1
HLA-B*44:02 = test: IEDB peptide-MHC binding, purified MHC/competitive/radioactivity; filed as Kd, often an IC50 or EC50 that approximates it; ≥ and ≤ were set here for values at or beyond the usual limits of such assays
HLA-A*02:01 [4] = test: as above
HLA-A*30:01 = test: as above
HLA-A*24:02 [5] = test: as above
HLA-A*23:01 = test: as above
HLA-A*33:01 = test: as above
HLA-B*44:03 = test: as above
HLA-B*51:01 = test: as above
HLA-B*53:01 = test: as above
HLA-A*01:01 = test: as above
HLA-A*02:01 [6] = test: IEDB peptide-MHC binding, purified MHC/direct/fluorescence; filed as Kd, often an IC50 or EC50 that approximates it; ≥ and ≤ were set here for values at or beyond the usual limits of such assays; conditions: source organism: SARS-CoV1
HLA-B*15:01 = test: as above; conditions: source organism: SARS-CoV1
HLA-A*69:01 = test: as above; conditions: source organism: SARS-CoV1
HLA-A*68:01 = test: IEDB peptide-MHC binding, purified MHC/competitive/radioactivity; filed as Kd, often an IC50 or EC50 that approximates it; ≥ and ≤ were set here for values at or beyond the usual limits of such assays; conditions: source organism: SARS coronavirus Tor2
HLA-A*02:03 = test: as above; conditions: source organism: Homo sapiens
HLA-A*26:01 [7] = test: as above
[8] = source organism: Dengue virus 3 Martinique/1243/1999
[9] = source organism: Zaire ebolavirus
[10] = source organism: Lassa virus Josiah
[11] = source organism: Vaccinia virus Copenhagen
[12] = source organism: Dengue virus 4 Philippines/H241/1956
[13] = source organism: Dengue virus 2 Jamaica/1409/1983
[14] = source organism: Dengue virus 1 Brazil/97-11/1997
[15] = source organism: Vaccinia virus WR
[16] = source organism: Sudan ebolavirus
[17] = source organism: Dengue virus 3 Singapore/8120/1995
[18] = source organism: Dengue virus 1 Singapore/S275/1990

## YENLKYTVII
HLA-B*40:01; [8]
  Kd: 0.00282 µM

## EGINELGAM
HLA-A*26:01 [1]
  Kd: 0.048 µM

## TSFFLWVII
HLA-A*02:01 [2]; [9]
  IC50: ≥ 503 µM
HLA-A*24:02 [3]; [9]
  IC50: ≥ 131 µM

## RHYSASFKK
HLA-A*03:01
  Kd: 0.341 µM
HLA-B*27:05
  Kd: 0.282 µM
HLA-A*31:01
  Kd: 1.25 µM
HLA-A*11:01
  Kd: 0.705 µM

## NEMILLTMK
HLA-B*44:02; [8]
  Kd: 0.824 µM

## VLQTFMRMA
HLA-A*02:01 [4]; [10]
  Kd: ≥ 5 µM

## SSQMTSTFI
HLA-A*02:01 [2]; [11]
  IC50: ≥ 72.6 µM
HLA-A*24:02 [3]; [11]
  IC50: ≥ 70.9 µM

## MAICSAVPTE
HLA-A*30:01; [12]
  Kd: 10600 nM

## GYHTQTAGPW
HLA-A*24:02 [5]; [13]
  Kd: 3.25 µM

## VYRIKQQGI
HLA-A*24:02 [5]; [8]
  Kd: 0.464 µM

## SYLAGAGLLF
HLA-A*23:01; [13]
  Kd: 0.000709 µM
HLA-A*24:02 [5]; [13]
  Kd: 0.00622 µM

## QAFTFSPTYK
HLA-A*02:01 [4]; source organism: Hepatitis B virus subtype adw2
  Kd: ≥ 35 µM

## LNLSGVNNL
HLA-A*02:01 [2]; [9]
  IC50: ≥ 77.5 µM

## EVKTCIWPK
HLA-A*30:01; [14]
  Kd: 1350 nM
HLA-A*33:01; [14]
  Kd: 0.00282 µM

## HEMYWVSCG
HLA-B*44:02; [14]
  Kd: 0.0374 µM

## FQESADSFL
HLA-A*02:01 [2]; [9]
  IC50: 14 µM

## RTKITSLPL
HLA-A*30:01; [15]
  Kd: 0.0866 nM

## KAISNARLK
HLA-A*30:01; [15]
  Kd: 26 nM

## AERTGEPDY
HLA-B*44:03; [12]
  Kd: 0.851 µM
HLA-B*44:02; [12]
  Kd: 0.391 µM

## MDSRPQKIW
HLA-A*02:01 [2]; [9]
  IC50: ≥ 191 µM
HLA-A*24:02 [3]; [9]
  IC50: 67.8 µM

## HLHQQLSNT
HLA-A*02:01 [2]; [16]
  IC50: 15 µM

## RYVHKVSGT
HLA-A*02:01 [2]; [9]
  IC50: ≥ 90.9 µM
HLA-A*24:02 [3]; [9]
  IC50: 6.66 µM

## MPGTRKVMEI
HLA-B*51:01; [17]
  Kd: 1.1 µM
HLA-B*53:01; [17]
  Kd: 0.0764 µM

## LAGFMAYMI
HLA-B*51:01; [12]
  Kd: 7.09 µM
HLA-B*53:01; [12]
  Kd: 2.12 µM

## AEGVITQDDM
HLA-B*40:01; [12]
  Kd: 1.31 µM

## AVPSHWVPTS
HLA-A*30:01; [13]
  Kd: 15000 nM

## LTKLFSYGT
HLA-A*02:01 [2]; source organism: Variola virus
  IC50: 36.1 µM

## ALLEDPVGT
HLA-A*02:01 [2]; source organism: Human alphaherpesvirus 1 strain 17
  IC50: 0.028 µM

## YPNVCIFGN
HLA-A*24:02 [3]; source organism: Vaccinia virus
  IC50: 35.5 µM

## MTDTTPFGQ
HLA-A*01:01; [12]
  Kd: 3.77 µM

## GEKKKLRPRW
HLA-B*44:03; [8]
  Kd: 2.6 µM
HLA-B*44:02; [8]
  Kd: 0.342 µM

## PVYQVNNLE
HLA-A*24:02 [3]; [9]
  IC50: ≥ 100 µM

## KLFAAETLK
HLA-A*02:01 [6]
  Kd: ≥ 29.2 µM
HLA-B*27:05
  Kd: 2.18 µM
HLA-B*15:01
  Kd: ≥ 21.3 µM
HLA-A*31:01
  Kd: 0.173 µM
HLA-A*69:01
  Kd: 15.9 µM
HLA-A*33:01; source organism: SARS coronavirus Tor2
  Kd: 13.6 µM
HLA-A*68:01
  Kd: 0.399 µM

## STANVSLAA
HLA-A*01:01; [8]
  Kd: 2.03 µM

## CSRLQTCIK
HLA-A*30:01; [11]
  Kd: 44 nM

## LWVAEIQPQW
HLA-A*23:01; [12]
  Kd: 1.38 µM
HLA-A*24:02 [5]; [12]
  Kd: 0.312 µM

## GLNLEGSGV
HLA-A*02:01 [2]; [16]
  IC50: 3.86 µM

## LFQKAFSMP
HLA-A*24:02 [3]; [16]
  IC50: 2.78 µM

## ALPHAILRL
HLA-A*02:01 [4]; source organism: Homo sapiens
  Kd: 0.128 µM
HLA-A*02:03
  Kd: 0.00787 µM

## GMSGGNQGA
HLA-A*02:01 [4]; [10]
  Kd: 12.5 µM

## NWLNNNTQF
HLA-A*23:01; [13]
  Kd: 0.716 µM
HLA-A*24:02 [5]; [13]
  Kd: 0.088 µM

## WLVSNGSYL
HLA-A*02:01 [4]; [10]
  Kd: 1.79 µM

## EEYVDYMPV
HLA-B*40:01; [12]
  Kd: 0.19 µM

## MFLIAENKI
HLA-A*23:01; [18]
  Kd: 0.913 µM
HLA-B*51:01; [18]
  Kd: 2.76 µM

## HTIENTSAN
HLA-A*26:01 [7]; [12]
  Kd: 4.84 µM

## ELMMATIGIA
HLA-A*26:01 [7]; [13]
  Kd: 0.065 µM

## CETCVYNMM
HLA-B*40:01; [13]
  Kd: 0.0521 µM
HLA-B*44:02; [13]
  Kd: 0.0922 µM

From the Immune Epitope Database (IEDB)
